# Measurements taken from patent publication US20110189084A1, “Method for Treating Liver Disorders with Receptor Associated Protein (RAP) Peptide-Fucosidase Inhibitor Conjugates” (RAPTOR PHARMACEUTICAL INC., priority 2010, published 2011).
# Bridge positions count the residues as written; N and C are the ends. Ends that are not written are not given here.
# T1: human liver alpha-L-fucosidase (Homo sapiens, UniProt P04066)
# T1 sequence (P04066 32-466): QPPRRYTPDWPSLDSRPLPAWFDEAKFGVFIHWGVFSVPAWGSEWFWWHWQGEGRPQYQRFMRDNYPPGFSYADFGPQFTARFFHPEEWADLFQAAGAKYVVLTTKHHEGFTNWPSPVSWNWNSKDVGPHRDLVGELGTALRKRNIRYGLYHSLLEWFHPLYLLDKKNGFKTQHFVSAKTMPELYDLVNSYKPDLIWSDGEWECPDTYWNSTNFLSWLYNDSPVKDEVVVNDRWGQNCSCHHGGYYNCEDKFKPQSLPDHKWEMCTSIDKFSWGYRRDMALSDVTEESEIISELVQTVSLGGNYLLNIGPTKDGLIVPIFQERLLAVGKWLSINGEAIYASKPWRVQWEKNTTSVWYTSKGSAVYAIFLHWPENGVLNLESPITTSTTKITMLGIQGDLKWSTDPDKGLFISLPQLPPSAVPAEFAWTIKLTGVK
# T2: lysosomal fucosidase (Homo sapiens, UniProt P04066)
# T2 construct: Fucosidase activity in 20 μL of each lysate sample was measured; endogenous in cells; host or cells: HepG2
# T2 sequence (P04066 32-466): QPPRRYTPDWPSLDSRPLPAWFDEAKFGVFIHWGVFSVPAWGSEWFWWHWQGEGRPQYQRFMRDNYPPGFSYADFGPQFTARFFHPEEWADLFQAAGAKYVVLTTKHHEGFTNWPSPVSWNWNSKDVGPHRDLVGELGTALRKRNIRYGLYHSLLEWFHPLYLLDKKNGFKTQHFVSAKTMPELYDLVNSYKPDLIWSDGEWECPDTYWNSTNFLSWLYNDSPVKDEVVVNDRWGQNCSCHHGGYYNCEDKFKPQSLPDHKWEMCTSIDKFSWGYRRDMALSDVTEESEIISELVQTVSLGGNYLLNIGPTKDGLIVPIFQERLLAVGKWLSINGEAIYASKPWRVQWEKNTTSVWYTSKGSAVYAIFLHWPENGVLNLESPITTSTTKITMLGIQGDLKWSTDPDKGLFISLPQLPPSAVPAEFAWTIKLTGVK
# T3: LRP1 (Homo sapiens, UniProt Q07954)
# T3 sequence (Q07954 786-1165 limits assumed): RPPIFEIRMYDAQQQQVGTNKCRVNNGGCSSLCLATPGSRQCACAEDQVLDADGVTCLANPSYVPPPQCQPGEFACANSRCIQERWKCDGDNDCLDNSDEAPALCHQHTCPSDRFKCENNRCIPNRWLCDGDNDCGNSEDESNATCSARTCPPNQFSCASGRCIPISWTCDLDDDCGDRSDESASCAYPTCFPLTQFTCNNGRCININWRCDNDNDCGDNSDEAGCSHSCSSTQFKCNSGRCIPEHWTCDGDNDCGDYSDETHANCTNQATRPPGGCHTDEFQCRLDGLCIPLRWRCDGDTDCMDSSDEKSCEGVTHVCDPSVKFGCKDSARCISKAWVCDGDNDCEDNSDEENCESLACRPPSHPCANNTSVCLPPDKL
# Experiments:
# [1] = biological target: T1, human liver alpha-L-fucosidase; conditions: ref [12]; cited from earlier work
# lysosomal fucosidase = biological target: T2, lysosomal fucosidase; test: fucosidase activity in lysates of treated HepG2 cells (4-MU-fucopyranoside); type: cell-based; conditions: 72 hours, versus buffer
# Procedure: HepG2 human hepatocellular carcinoma cells were seeded in 6-well tissue culture plates at 4×10^5 per well. […] Cells were then washed with cold PBS, scraped into a microfuge tube, pelleted and lysed. Total protein concentration was determined by Bradford assay for each sample and lysate volumes adjusted to 0.3 mg/mL. Fucosidase activity in 20 μL of each lysate sample was measured by adding 100 μL of 0.5 mM 4-MU-fucopyranoside with subsequent incubation at 37° C. for 30 minutes. Reactions were quenched with 130 μL of 600 mM citrate/carbonate buffer at pH 9. Released 4-MU was assayed in a fluorescence microplate reader (see Example 1 above). […] Duplicate sample activity values were averaged and plotted.
# [2] = cited from earlier work
# [3] = intravenously administered, rodent and feline species; cited from earlier work
# LRP1 = biological target: T3, LRP1; conditions: read-out: affinity for LRP1; cited from earlier work
molecule,measurement,setting,value
"CCCCN1C[C@H](O)[C@@H](O)[C@H](O)[C@H](C(=O)O)C1 [Faz, (3R,4R,5S,6S)-1-butyl-4,5,6-trihydroxyazepane-3-carboxylic acid]",potency of fucosidase inhibition,[1],low nanomolar range
C[C@@H]1NC[C@@H](O)[C@H](O)[C@@H]1O [L-deoxyfuconojirimycin],inhibition at 30 µM,lysosomal fucosidase,> 50%
"RAP: mature receptor associated protein, 323 amino acid peptide, SEQ ID NO: 1",circulating half-life,"[2]; injected RAP, intravenous",less than a minute
same,exogenous RAP accumulating in the liver,"[2]; intravenous bolus injection of 30 picomoles, within 10 minutes",over 70%
same,"accumulation in heart, brain, muscle or kidney",[2]; intravenous,< 1 % of injected dose
same,toxicity,[3],no measurable toxicity
"mRAP14c: RAP residues 250-309 with substitutions F250C, L308G and Q309C (CEAKIEKHNHYQKQLEIAHEKLRHAESVGDGERVSRSREKHALLEGRTKELGYTVKKHGC; disulfide 1-60 (inferred))",Kd,LRP1,~0.021 µM
"mRAPc: RAP d3 with the modifications A242G, R314G, E241C and I315C (peptide) CGFREELKHFEAKIEKHNHYQKQLEIAHEKLRHAESVGDGERVSRSREKHALLEGRTKELGYTVKKHLQDLSGGC",Kd,LRP1,~0.01 µM
